Data on four molecules can be found in patent US20260125484A1 (GMAX BIOPHARM, published 2026).

Test [1] has as its target T1, human endothelin receptor A (hETAR) (human, UniProt P25101 21-427).
T1 construct: GenBank AAB20278; co-expressed with Aequorin in the calcium flux assay; also called human ETAR; CHO-DHFR-hETAR
T1 sequence: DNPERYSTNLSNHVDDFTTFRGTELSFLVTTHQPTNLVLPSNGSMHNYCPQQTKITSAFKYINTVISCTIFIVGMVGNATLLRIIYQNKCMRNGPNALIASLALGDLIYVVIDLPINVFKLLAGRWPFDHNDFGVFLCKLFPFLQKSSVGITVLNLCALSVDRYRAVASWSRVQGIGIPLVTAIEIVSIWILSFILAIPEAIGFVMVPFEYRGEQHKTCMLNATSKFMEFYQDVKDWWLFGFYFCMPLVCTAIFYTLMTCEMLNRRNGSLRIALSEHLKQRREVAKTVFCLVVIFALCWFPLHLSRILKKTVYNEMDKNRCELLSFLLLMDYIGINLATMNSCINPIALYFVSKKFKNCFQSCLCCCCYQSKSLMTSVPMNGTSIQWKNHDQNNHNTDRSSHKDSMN
Kind of test: FACS on CHO-DHFR-ETAR cells. Here is the method: 10⁵ CHO-DHFR-hETAR cells were digested and collected with PBS containing 10 mM EDTA, separately added into 1.5 mL EP tubes, the supernatant was discarded after centrifugation, and the negative control sample was resuspended in a flow loading buffer (PBS, 2% FBS). Positive treatment group cells in each tube were added with 200 μL of the antibody supernatant, and incubated at room temperature; after the completion of the incubation, the cells were centrifuged at 1500 rpm, the supernatant was discarded, the cell precipitate was washed once with a flow loading buffer, and centrifuged again, and the cells were resuspended; 1:50 diluted FITC labeled goat anti-mouse fluorescent secondary antibody (BD Pharmingen) was added to the cell resuspension solution at 200 μL/well, and the cells were incubated at room temperature for 30 min in the dark; and the cells were centrifuged, the supernatant was discarded, the cell was washed once with a flow loading buffer, and centrifuged, the cell precipitate was resuspended with a flow loading buffer for on-machine detection. The supernatant expressing recombinant anti-ETAR functional antibody was specifically bound to CHO-DHFR-ETAR cells expressing ETAR. The gray peaks and dotted line peaks were negative controls; and the solid line peak corresponding to the hybridoma cell supernatant shifted obviously to the right.

The target in test [2] is T1, human endothelin receptor A (hETAR). Kind of test: cell-based or functional assay.

B1: ETAR antibody A-2 (antibody, mouse IgG1, V domains shown)
VH: QIQLVQSGAELAKPGASVRMSCETSGYTFTSYWIHWIKERPGQGLEWIGYINPDTDYSEYNQKFKDKARLTADKSSTTAYMELNSLTFDDSAVYYCASAGYYFFDFWGQGTTLTVSS
VL: DIQMTQSPASLSTSVGETVTITCRASENIYSYLAWYQQRQGKSPHLLVNNAKTLAEGVPSRFSGSGSGTHFSLRISGLQPEDFGSYYCQHHYGIPFTFGGGTKLSIKR
notes: also called L2H2
Regarding B1, in test [1], the binding result was “binds”.

B2: ETAR antibody A-12 (antibody, mouse IgG1, V domains shown)
VH: EVKLVESGGRLVQPGNSLRLSCATSGFTFSDYYMSWVRQTPGRALEWLSFIRNRANGYTTEYSASVKGRFTISRDNSQSILYLHMSTLRPEDSATYYCVRDSYHYGYFDVWGAGTTVTVSS
VL: EIQMTQTPSSLSASLGDRVTITCSASQGINNYLNWYQQKPGGKTRLLIYYTSTLQSGVPSRFSGSGSGTHYSLTISNLEPEDIATYYCQQFSKLRTFGGGTRLEIKR
notes: also called L12H12
Turning to B2, the binding result in test [1] was “binds”.

B3: ETAR antibody A-9 (antibody, mouse IgG1, V domains shown)
VH: EVQLQQPGGGLVQPGGSLTLSCATSGFTFSSYGMSWVRQTPAKRLELVATISTNGATANYPDSVKGRFTISRDNAKSTLYLQMRSLKSEDTAMYYCATEKGAMGYWGQGTSVTVSS
VL: DVLMTQTPLSLPVSLGDQASISCRSSQNIVHSTGNTYLEWYLQKPGQSPKLLIYKVSNRFSGVPNRFRGSGSGTDFTLKITRVEAEDLGIYYCFQGSHFPFTFGSGTKLEIKR
For the molecule B3, the “IC50, calcium flux inhibition curve” value in test [2] worked out at 88 nM.

B4: ETAR antibody A-7 (antibody, mouse IgG1, V domains shown)
VH: EVHLVESGGGLVQPGGSLKLSCAASGFTFSTYGMSWVRQTPDKRLELVATINTNGGTTYYRDSVKGRFTISRDNAKNTLYLQMSSLKSDDTAMYYCARDYGAMDYWGQGTSVTVSS
VL: DVLMTQTPLSLPVSLGDHASISCRSSQYIVHSTGTTYLEWYLQKPGQSPQLLIYKVSNRFSGVPDRFTGSGSGTDFTLRISRVEAEDLGVYFCFQGSHFPFTFGSGTKLEIKR
notes: also called L7H7
Take B4: the binding result in test [1] is reported as “binds”.
